Changes are numbered by the printed parent chain. Names may count otherwise.
B1: wild-type SAGA deubiquitinating module (DUBm): Ubp8, Sgf11, Sus1, Sgf73(1-96) (complex, yeast)
chain 1: MSICPHIQQVFQNEKSKDGVLKTCNAARYILNHSVPKEKFLNTMKCGTCHEINSGATFMCLQCGFCGCWNHSHFLSHSKQIGHIFGINSNNGLLFCFKCEDYIGNIDLINDAILAKYWDDVCTKTMVPSMERRDGLSGLINMGSTCFMSSILQCLIHNPYFIRHSMSQIHSNNCKVRSPDKCFSCALDKIVHELYGALNTKQASSSSTSTNRQTGFIYLLTCAWKINQNLAGYSQQDAHEFWQFIINQIHQSYVLDLPNAKEVSRANNKQCECIVHTVFEGSLESSIVCPGCQNNSKTTIDPFLDLSLDIKDKKKLYECLDSFHKKEQLKDFNYHCGECNSTQDAIKQLGIHKLPSVLVLQLKRFEHLLNGSNRKLDDFIEFPTYLNMKNYCSTKEKDKHSENGKVPDIIYELIGIVSHKGTVNEGHYIAFCKISGGQWFKFNDSMVSSISQEEVLKEQAYLLFYTIRQVN
chain 2: MTEETITIDSISNGILNNLLTTLIQDIVARETTQQQLLKTRYPDLRSYYFDPNGSLDINGLQKQQESSQYIHCENCGRDVSANRLAAHLQRCLSRGARR
chain 3: MTMDTAQLKSQIQQYLVESGNYELISNELKARLLQEGWVDKVKDLTKSEMNINESTNFTQILSTVEPKALEMVSDSTRETVLKQIREFLEEIVDTQ
chain 4: MRSGDAEIKGIKPKVIEEYSLSQGSGPSNDSWKSLMSSAKDTPLQYDHMNRESLKKYFNPNAQLIEDPLDKPIQYRVCEKCGKPLALTAIVDHLEN
B2: DUBm-ΔSgf11-ZnF-Ubp8^S144N: Ubp8 S144N, Sgf11(1-72), Sus1, Sgf73(1-96) (complex, yeast)
chain 1: B1 chain 1 with S144N
chain 2: MTEETITIDSISNGILNNLLTTLIQDIVARETTQQQLLKTRYPDLRSYYFDPNGSLDINGLQKQQESSQYIH
chain 3: B1 chain 3
chain 4: B1 chain 4
B3: DUBm-ΔSgf11-ZnF-Ubp8^S144N/S149N: Ubp8 S144N S149N, Sgf11(1-72), Sus1, Sgf73(1-96) (complex, yeast)
chain 1: B1 chain 1 with S144N, S149N
chain 2: B2 chain 2
chain 3: B1 chain 3
chain 4: B1 chain 4
B4: Ubp8 S144N (enzyme, yeast)
chain: B1 chain 1 with S144N
B5: DUBm-ΔSgf11-ZnF-Ubp8^S149N: Ubp8 S149N, Sgf11(1-72), Sus1, Sgf73(1-96) (complex, yeast)
chain 1: B1 chain 1 with S149N
chain 2: B2 chain 2
chain 3: B1 chain 3
chain 4: B1 chain 4
B6: Ubp8 (wild type) (enzyme, yeast)
chain: B1 chain 1
B7: DUBm-ΔSgf11-ZnF-Ubp8^WT: Ubp8, Sgf11(1-72), Sus1, Sgf73(1-96) (complex, yeast)
chain 1: B1 chain 1
chain 2: B2 chain 2
chain 3: B1 chain 3
chain 4: B1 chain 4

Columns and labels:
ubiquitin-AMC = ubiquitin-AMC (UniProt P0CG48 1-76, AMC (ubiquitin-AMC)); assay: cell-based or functional assay
AUC [1] = molecular target: the molecule itself; assay: AUC
AUC [2] = molecular target: the molecule itself; assay: AUC; remark: listed apart in the source
crystal structure = molecular target: the molecule itself; assay: crystal structure

Binder	KM of Ub-AMC cleavage (steady-state kinetics, 30°C) (ubiquitin-AMC) [µM]	stoichiometry N (AUC [1])	Kd (AUC [2]) [µM]	binding result (crystal structure)
B1	24	–	–	–
B2	17	2	28	–
B3	13	–	–	–
B4	–	–	–	binds
B5	11	–	–	–
B6	–	–	–	binds
B7	19	2	~17	–
